System: K4 kissing-loop RNA reporter
Experiment: apparent KD of K4 kissing-loop reporter; higher = weaker reporter binding
Conditions: Eterna round: R107
Method: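 RNA-MaP round R107: designed RNA switches with theophylline, tryptophan, arginine or FMN aptamers are transcribed on-chip within common flanks. They are titrated with a labelled K4 kissing-loop RNA reporter in RNA-MaP buffer (100 mM Tris pH 7.5, 80 mM KCl, 4 mM MgCl2), without ligand or with the indicated ligand. Median apparent KD per design.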

[1] = input ligand: theophylline 20 uM
[2] = input ligand: tryptophan 2.4 mM
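Also: bound reporter read as fluorescence of individual clusters on recovered sequencing chips by microscopy, with normalized cluster intensities fitted with a binding model.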

| Sequence | apparent KD of K4 kissing-loop reporter (input ligand: FMN 200 uM) | apparent KD of K4 kissing-loop reporter (input ligand: arginine 13.2 mM) | apparent KD of K4 kissing-loop reporter (input ligand: none) | apparent KD of K4 kissing-loop reporter [1] | apparent KD of K4 kissing-loop reporter [2] |
| --- | --- | --- | --- | --- | --- |
| GGGUGUAGUGCGGCCGCCACUGUGAAAGUAGAAGAAUAUAGUGAUGUUAUAUAGGAUUAAAAGAAUAGGACCGGGCAUUAGACUU [#23 K4 Tryptophan B Same State] | 214 nM | 236 nM | 284 nM | 248 nM | 182 nM |
| GGGUUCUCGUCGGCCGCCACUUCAUGUAUUUAGCAGGCUUCGCUCAGACUCAGUGAUGUUGGGUAAAGGACCGGGACACAUUCAA [theeternabot_exclusion_KL_Trp_B_50] | 372 nM | 245 nM | 342 nM | 304 nM | 310 nM |
| GGUAGCAUGGCGGCCGCCACUGCGAAUGACGGCCACGUGAAAGUUGCCGCAGAGUGAUGUUCUGGCAGGACCGGGCCAUGCUACC | 432 nM | 372 nM | 515 nM | 477 nM | 354 nM |
| GGUAGCAUGGCGGCCGCCACUUAGACCCUCCAGGAUGAGGGAAAAUAGCAGUGAUGUUGCUAGGUAAGGACCGGGCCAUGCUACC | 230 nM | 120 nM | 162 nM | 156 nM | 119 nM |
| GGUAGCAUGGCGGCCGCCACUUCAAGUGGAGUGAUGUUCCGCGGCAUCGCGAAAGCGAUGCCUGGAAGGACCGGGCCAUGCUACC | 1090 nM | 858 nM | 924 nM | 797 nM | 306 nM |
| GGUAGUGCUAGCGAUACCAGUCAUAUCGCUCUGGAGUGAUGUUCCGGAACGUGCGGAGAAGACCCUUGGCAGCGCUUGACUGGAA [Exclusion Theophylline B GF6] | 758 nM | 539 nM | 574 nM | 538 nM | 736 nM |
| GGUAUCUAUACAGAUACCAGUCGUACAGCACCAUUACAGGUUAGUGAUGUUAACCUGUACGACCCUUGGCAGCUGUAUAAUAAUA [Theo B Ex t2a] | 105 nM | 85.4 nM | 96.8 nM | 121 nM | 87.9 nM |
| GGUAUCUAUACAGAUACCAGUCGUACAGCUGCAUUACAGGUUAGUGAUGUUAACCUGUACGACCCUUGGCAGCUGUAUAGUAGUA [Theo B Ex t2b] | 101 nM | 72 nM | 91.8 nM | 100 nM | 94 nM |
| GGUAUCUAUACAGAUACCAGUCGUAUAGGUCGAUUACAGGUUAGUGAUGUUAACCUGUACGACCCUUGGCAGCUGUAUAAUAAUA [Theo B Ex t2] | 62 nM | 60.3 nM | 59.9 nM | 51.7 nM | 61.9 nM |
| GGUCGAGUGAUGUUCGAUGUAAUGCAUUCAGAGGAUAUAGGAUUGGCUAGAAGGCUGAAUCGUUCUUCGAGUGAUGUUCGAGGAU [Same State FMN A GF 7] | 286 nM | 141 nM | 213 nM | 244 nM | 183 nM |
| GGUGCGCUGUUAGUGAUGUUAACCGAGGAUACCAGUUAGGCGUCUAACCCUUGGCAGCCUCUCUGGUCUCAUCAACGUUGUGCUA [theeternabot_exclusion_KL_Theo_A_37] | 600 nM | 431 nM | 599 nM | 641 nM | 463 nM |
| GGUGCGGGCUCGGCCGCCACUCCCGCGGGUCGUAAGGUCCGCUACUGAGUGAUGUUCGGUUGGAGGAGGACCGGGAGCCCGUGCC [#2 Exclusion - Tryptophan B Attempt #19 (HarryS)] | 115 nM | 113 nM | 106 nM | 85.3 nM | 106 nM |
| GGUUCCUCAGUGAUGUUGAGGUGACCUCGGCAGGAUAUAGGCAUUACUAGAAGGGCCAAAAGAACCCUGUCCAGCGACACAGGGU [Inatinar] | 157 nM | 304 nM | 310 nM | 259 nM | 265 nM |
| GGUUGCAGCCCUGCAUCGUGGGUUUAGAGUAAGGAUAUUCGCCAAGGAAGAAGGUACUCUGCAUUGAGUGAUGUUCAAUAAGAUG [theeternabot_sameState_KL_FMN_A_30] | 109 nM | 176 nM | 146 nM | 166 nM | 104 nM |
| GUACCUUGGAAACAAGGACAGAUAACCGAAGGAGCGCGUGAAAACGCAGGUAGGUCGCGGAAGCAGUGAUGUUGCAAAAGAGAGC [Same State Arginine A GF 17] | 168 nM | 188 nM | 125 nM | 228 nM | 111 nM |
| GUACGCUUCCGAGUGAUGUUCGGUAAUAGUUAGGAUAUCGCUUUUGCGAGAAGGAACUGAAUGAGGAAACUCGUUCGAAGUGUAC [FMN A 17] | 406 nM | 336 nM | 540 nM | 396 nM | 459 nM |
| GUAGCACUCGAUAGUGAUGUUAUCGAGGGCAAGGAUAUCACCUCAGUGAGAAGGUGUCCUUGAUAACUGCUACGGGAAUAUCCCA [Omei KL FMN A Exc D v8] | 270 nM | 90.9 nM | 101 nM | 106 nM | 99.6 nM |
| GUAGCACUUGAUAGUGAUGUUAGCAAGGGCAAGGAUAUCAUCUCAAUGAGAAGGUGUCCUUGCUAACAGCUACGGGAAUAUCCCA [Omei KL FMN A Exc D v5] | 173 nM | 424 nM | 577 nM | 579 nM | 630 nM |
| GUAGCUAAAGAAGGAUAUCGGAUCCAAAUCAAGCAGUGAUGUUGCGUGAAGAUCGGCUCCAUGCCGCGAGAAGGUCUUUUCUGUU [theeternabot_sameState_KL_FMN_B_18] | 179 nM | 305 nM | 207 nM | 284 nM | 147 nM |
| GUAGCUUGGCUAGGAUAUUAGCGUAGGAGUGAUGUUCCGACUAGCGAAAGCUAGUCUCACGCUAGUUAAGAAGGAGCCAAGCUAC | 263 nM | 172 nM | 175 nM | 181 nM | 174 nM |
| GUAGGAUGAGGAGGAGGAUGAAUUACUGAAGGAGCGCAUAUUUAUGCAGGUAGGUCGCGGUAAAGAAGUAUAGUGAUGUUAUAUA [SSArgA.I] | 410 nM | 343 nM | 264 nM | 479 nM | 246 nM |
| GUAGUCGUACCUUCAGUGAUGUUGAAGGAUACCAGAUGUUACCACAUCCCUUGGCAGCCUUGGGAUAACAGUGAGUUGGAAUAUG [Soonusa] | 161 nM | 127 nM | 159 nM | 138 nM | 160 nM |

— the supplement of paper PMC9170038
